The target of assay [1] is T1, B7-H4 expressed on cells (MX-1 cells; CHO-S cells stably expressing B7-H4) (human, UniProt Q7Z7D3 25-282).
T1 construct: whole, on cells; also called huB7-H4; antigens expressed by cells
T1 sequence (looked up): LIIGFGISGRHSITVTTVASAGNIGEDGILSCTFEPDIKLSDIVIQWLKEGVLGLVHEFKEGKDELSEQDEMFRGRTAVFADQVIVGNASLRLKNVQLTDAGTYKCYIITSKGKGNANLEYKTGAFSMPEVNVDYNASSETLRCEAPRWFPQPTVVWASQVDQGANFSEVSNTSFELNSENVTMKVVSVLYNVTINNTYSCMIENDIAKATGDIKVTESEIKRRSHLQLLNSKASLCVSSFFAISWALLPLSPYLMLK
In words: flow cytometry (FACS) on MX-1 cells. The protocol:
The cultured MX-1 cells were collected, cell density was adjusted with PBS pH 7.4, then plated onto a 96-well V-shaped bottom plate with 1×10⁵ cells per well, and centrifuged at 2000 rpm for 5 minutes to remove supernatant. 100 μl of the serially diluted chimeric antibody solution was added (diluted with 0.5% BSA in PBS to obtain a gradient of 3-fold dilutions, starting from 1 μM, with a total of 10 doses) into each well, mixed, and incubated for 1 hour at 4° C. with shaking; the culture was centrifuged at 2000 rpm for 5 minutes to remove the supernatant, and the cells were washed twice with PBS, and 100 μl of FITC-labeled goat anti-human secondary antibody (Abeam, cat #ab97224) diluted with 0.5% BSA in PBS was added into each well, mixed well and incubated for 30 minutes at 4° C. in a shaker. Centrifugation was performed at 2000 rpm for 5 minutes and the supernatant was removed. Cells were washed twice with PBS and resuspended in PBS. The signals were detected using flow cytometer (BECKMANCOULTER, model DxFLEX), and the concentration curve was plotted and the results were analyzed. As indicated in the table and figure, humanized antibodies 2F7, 2F8, 2G6 and 1C9 show positive bindings to MX-1 cells on which B7-H4 was highly expressed.

In assay [2] the target is T2, antigen fragment P12 (TVASAGNIGEDGILSCTFEP) (human).
T2 peptide: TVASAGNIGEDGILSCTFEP
The assay is described as follows: indirect ELISA on antigen fragment. The protocol: (§1) The method procedures were the same as described in Example 3 (1): in vitro indirect ELISA binding assay. […] To further confirm the epitope to which the antibody binds, alanine scan was performed on the antigen fragment P12, that is, each single amino acid located in P12 was mutated to alanine respectively.
In general terms: In an ELISA, binding on a coated surface is turned into a signal by an enzyme label.

The target in assay [3] is T3, antigen fragment TVASAGNIGEDGALSCTFEP (human).
T3 construct: Alanine-scan variant of P12; the entry already carries the alanine; also called P12 alanine mutant (I to A)
T3 peptide: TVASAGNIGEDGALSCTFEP
The assay is described as follows: indirect ELISA on antigen fragment, alanine scan. Here is the method: as §1

In assay [4] the target is T4, antigen fragment TVASAGNIGEDGILSCTAEP (human).
T4 construct: Alanine-scan variant of P12; the entry already carries the alanine; also called P12 alanine mutant (F to A)
T4 peptide: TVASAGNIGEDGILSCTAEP
The assay is described as follows: indirect ELISA on antigen fragment, alanine scan. Here is the method: as §1

Assay [5] addresses T5, antigen fragment TVASAGNIGEDGILSCTFAP (human).
T5 construct: Alanine-scan variant of P12; the entry already carries the alanine; also called P12 alanine mutant (E to A)
T5 peptide: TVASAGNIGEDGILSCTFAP
The assay is described as follows: indirect ELISA on antigen fragment, alanine scan. The protocol: as §1

Assay [6] has as its target T6, antigen fragment TVASAGNIGEDGILSCAFEP (human).
T6 construct: Alanine-scan variant of P12; the entry already carries the alanine; also called P12 alanine mutant (T to A)
T6 peptide: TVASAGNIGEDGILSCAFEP
The assay is described as follows: indirect ELISA on antigen fragment, alanine scan. Here is the method:
as §1

Assay [7] concerns the target T7, antigen fragment TVASAGNIGEDGILSATFEP (human).
T7 construct: Alanine-scan variant of P12; the entry already carries the alanine; also called P12 alanine mutant (C to A)
T7 peptide: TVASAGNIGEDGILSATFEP
The assay is described as follows: indirect ELISA on antigen fragment, alanine scan. The protocol: as §1

Assay [8] has as its target T8, antigen fragment TVASAGNIGEDGIASCTFEP (human).
T8 construct: Alanine-scan variant of P12; the entry already carries the alanine; also called P12 alanine mutant (L to A)
T8 peptide: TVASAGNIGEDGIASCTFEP
The assay is described as follows: indirect ELISA on antigen fragment, alanine scan. The protocol:
as §1

Assay [9] has as its target T9, Human B7-H4 with HisFlag tag (huB7-H4-his) (human, UniProt Q7Z7D3 25-258).
T9 construct: also called HuB7-H4 His protein; huB7-H4-HF
T9 sequence: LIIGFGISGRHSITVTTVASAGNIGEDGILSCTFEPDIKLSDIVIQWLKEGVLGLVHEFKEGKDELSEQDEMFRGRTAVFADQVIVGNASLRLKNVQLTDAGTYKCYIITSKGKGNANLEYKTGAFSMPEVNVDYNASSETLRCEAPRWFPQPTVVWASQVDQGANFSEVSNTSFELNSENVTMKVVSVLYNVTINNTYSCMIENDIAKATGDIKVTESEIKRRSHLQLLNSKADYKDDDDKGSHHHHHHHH
In words: SPR Biacore T200, antibody coupled to CM5 chip, hu-B7-H4-his in flow, 1:1 model. In general terms: Surface plasmon resonance follows binding to a sensor surface in real time, without labels.

Assay [10] addresses T4, antigen fragment TVASAGNIGEDGILSCTAEP
In words: indirect ELISA on antigen fragment, alanine scan.

For assay [11], the target named is T7, antigen fragment TVASAGNIGEDGILSATFEP
The assay is described as follows: indirect ELISA on antigen fragment, alanine scan.

Assay [12] addresses T8, antigen fragment TVASAGNIGEDGIASCTFEP
In words: indirect ELISA on antigen fragment, alanine scan.

Assay [13] deals with T2, antigen fragment P12 …. The assay is described as follows: indirect ELISA on antigen fragment.
Assay [14] concerns the target T2, antigen fragment P12 …. The assay is described as follows: indirect ELISA on antigen fragment.
Assay [15] addresses T3, antigen fragment TVASAGNIGEDGALSCTFEP
In words: indirect ELISA on antigen fragment, alanine scan.

Assay [16] deals with T4, antigen fragment TVASAGNIGEDGILSCTAEP
In words: indirect ELISA on antigen fragment, alanine scan.

Assay [17] concerns the target T10, antigen fragment TVASAGNIGEDGILSCTFEA (human).
T10 construct: Alanine-scan variant of P12; the entry already carries the alanine; also called P12 alanine mutant (P to A)
T10 peptide: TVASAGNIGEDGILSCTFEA
In words: indirect ELISA on antigen fragment, alanine scan.

For assay [18], the target named is T6, antigen fragment TVASAGNIGEDGILSCAFEP
In words: indirect ELISA on antigen fragment, alanine scan.

Assay [19] deals with T7, antigen fragment TVASAGNIGEDGILSATFEP
The assay is described as follows: indirect ELISA on antigen fragment, alanine scan.

The target of assay [20] is T8, antigen fragment TVASAGNIGEDGIASCTFEP
The assay is described as follows: indirect ELISA on antigen fragment, alanine scan.

Substitutions are numbered along the chain they refer to. Where two headings read alike, the source gives them in different places.

B1: humanized anti-B7-H4 antibody hu2F7 (antibody, human IgG1, kappa, V domains shown)
VH: EVQLVESGGGLVQPGGSLRLSCAASGFTFSNYYMSWVRQAPGKGLEWVAYVSSGGGSTYYSDSVKGRFTISRDNAKNTLYLQMSSLRAEDTAVYYCTRESYSQGNYFDYWGQGTTVTVSS
VL: EIVMTQSPATLSLSPGERATLSCRASQSISDYLHWYQQKPGQSPRLLIKFASQSISGIPARFSGSGSGTDFTLTISSLEPEDFAVYYCQNGHSFSLTFGQGTKLEIKR
notes: human IgG1 / kappa; also called humanized antibody 2F7
Take B1: the EC50 (usually the midpoint of the concentration-response curve) was 7.32 nM in assay [1]; 118 nM in [2]; 771 nM in [3]; 986 nM in assay [4]; 662 nM in assay [5]; 463 nM in [6]. For the same molecule, the concentration giving a half-maximal response (EC50) amounted to 2010 nM in assay [7] and 1480 nM in [8]. Besides, the Kd (commonly the equilibrium constant for the complex coming apart) in assay [9] was determined as 0.757 nM. In [9], the koff (as a rule, the first-order rate constant of dissociation) was found to be 0.000249 s⁻¹. In addition, the association rate constant (kon) (in general, the rate constant with which the complex forms) in [9] was found to be 329000 M⁻¹ s⁻¹.

B2: humanized anti-B7-H4 antibody hu2F8 (antibody, human IgG1, kappa, V domains shown)
VH: EVQLVQSGAEVKKPGASVKVSCKASGYTFTSSWMNWVRQAPGQRLEWMGGIYPNRGNIEYNEKFKGRVTLTVDTSASTAYMELSSLRSEDTAVYYCARDSRFSYWGQGTLVTVSS
VL: DIQMTQSPSSLSASVGDRVTITCKASQDVRTAVAWYQQKPGKAPKLLISSTSYRYTGVPSRFSGSGSGTDFTFTISSLQPEDIATYYCQQHYSTPLTFGGGTKVEIKR
notes: human IgG1 / kappa; also called humanized antibody 2F8
Take B2: in [1], the EC50 is 7.26 nM. In assay [9], this molecule returned a dissociation constant Kd of 0.25 nM, a koff of 0.000112 s⁻¹ and an on-rate (kon) of 447000 M⁻¹ s⁻¹.

B3: humanized anti-B7-H4 antibody hu1C9 (antibody, human IgG1, kappa, V domains shown)
VH: B2 VH with Y27D, S31T, S32Y, P53L, N57S, I58S
VL: B2 VL with R30S, T51A, S93N
notes: human IgG1 / kappa; also called humanized antibody 1C9
On to B3, for which the EC50 in assay [10] came out at 488 nM; in assay [11], 292 nM; in assay [12], 467 nM; in assay [1], 7.25 nM; in assay [13] it was 272 nM. The same molecule yielded a Kd in [9] of no more than 0.0298 nM. For the same molecule, the off-rate constant (koff) in assay [9] is no more than 1e-05 s⁻¹. In assay [9], the kon stood at 335000 M⁻¹ s⁻¹.

B4: humanized anti-B7-H4 antibody hu2G6 (antibody, human IgG1, kappa, V domains shown)
VH: EVQLLESGGGLVQPGGSLRLSCAASGFTFSRYGMSWVRQAPGKGLEWVSGINGGGSYTYYLDTVKGRFTISRDNARNTLYLQMSSLRAEDTAVYYCVSQGSNYYFDYWGQGTLVTVSS
VL: DIRMTQSPSSLSASVGDRVTITCHASQGISSNIGWLQQKPGKAPKALIYHGTNLEDGVPSRFSGSGSGADYTLTISSLQPEDFATYYCVQYAQFPYTFGGGTKVEIKR
notes: human IgG1 / kappa; also called humanized antibody 2G6
As for B4, the half-maximal effective concentration (EC50) was found to be 793 nM in assay [14]; 14.3 nM in assay [1]; 2630 nM in [15]; 2600 nM in assay [16]; 2370 nM in [17]; 2290 nM in assay [18]. For the same molecule, the results for the 50% effective concentration (EC50) in [19] and in assay [20] were 3480 nM and 3160 nM, respectively. The Kd in assay [9] is no more than 0.0135 nM. Besides, the koff in assay [9] was no more than 1e-05 s⁻¹. Besides, the kon in assay [9] was 741000 M⁻¹ s⁻¹.
